Source: paper PMC10801921
Positions count from the first letter of the chain named.

Assays:
ARR1 RD-DBD D89E = biological target: T1, ARR1 RD-DBD D89E (Arabidopsis thaliana, UniProt Q940D0 1-301, D89E); test: BLI
T1 sequence: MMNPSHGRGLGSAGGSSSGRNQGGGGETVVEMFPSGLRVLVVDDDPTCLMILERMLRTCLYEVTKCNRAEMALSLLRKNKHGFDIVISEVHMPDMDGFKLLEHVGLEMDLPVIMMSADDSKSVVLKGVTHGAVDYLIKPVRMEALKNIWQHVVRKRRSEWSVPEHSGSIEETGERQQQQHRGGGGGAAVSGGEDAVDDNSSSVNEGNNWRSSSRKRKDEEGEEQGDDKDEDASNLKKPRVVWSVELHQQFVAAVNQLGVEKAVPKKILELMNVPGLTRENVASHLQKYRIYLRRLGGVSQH

ARR1 RD-DBD R294A = biological target: T2, ARR1 RD-DBD R294A (Arabidopsis thaliana, UniProt Q940D0 1-301, R294A); test: BLI
T2 sequence: T1 sequence with E89D, R294A

ARR1 DBD (crystal) = biological target: T3, ARR1 DBD (crystal) (Arabidopsis thaliana, UniProt Q940D0 221-301); test: X-ray crystallography
T3 sequence: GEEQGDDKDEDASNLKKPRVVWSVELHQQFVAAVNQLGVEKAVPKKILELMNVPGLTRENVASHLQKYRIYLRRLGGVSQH

B1: DNA-TCS 40 bp (ARR6-40) (dsDNA)
DNA 1: GGATTAGATTAGATTAATCTGGATTAGATTAATCTAGATT
DNA 2: AATCTAGATTAATCTAATCCAGATTAATCTAATCTAATCC
- binding result (ARR1 RD-DBD D89E): binds
- binding result (ARR1 RD-DBD R294A): binds

B2: DNA-TCS 25 bp (crystal) (dsDNA)
DNA 1: AATCCAGATTAATCTAATCTAATCC
DNA 2: GGATTAGATTAGATTAATCTGGATT
- binding result (ARR1 DBD (crystal)): binds
